Reference: patent publication US20130316958A1 (University of Southern California, priority 2010, published 2013)
Non-standard residues stand in square brackets, D forms with d. No end group written: not given here.

Key:
[1] = system: KSHV-infected TREX-BCBL-Vector cells; test: GFP-LC3 puncta autophagy assessment after peptide treatment; type: cell-based; details: 30 or 50 μM peptide, 12 hr
Text: (§1) The vFLIP α2 (10 aa) and α4 (12 aa) peptides that independently bound Atg3 at high efficiency were fused with the HIV-1 TAT protein transduction domain for intracellular delivery (Gump and Dowdy (2007) Trends Mol. Med. 13:443-448) and tested for their potential effects on autophagy induction. The K-α2 and K-α4 peptides contained KSHV vFLIP aa20-29 and aa128-139 regions, respectively, as retro-inverso versions to circumvent the proteolytic degradation. Mutant peptides K-α2m and K-α4m were also included, which replaced the hydrophobic core residues of the K-α2 (L21F22L23) and K-α4 (F130L-WVY139) peptides with alanines, as well as the C-α2 and C-α4 peptides containing the cFLIPs regions aa19-28 and aa128-139, respectively. At 12 hr post-transfection with GFP-LC3, KSHV-infected TREX-BCBL-Vector and TREX-BCBL-vFLIP cells were incubated with various concentrations of the peptides or rapamycin for an additional 12 hr, followed by an assessment of the GFP-LC3 puncta and cell death. […] Peptide-treated TREX-BCBL-Vector and TREX-BCBL-vFLIP cells were subjected to immunoblotting with αLC3 and aactin.

TREX-BCBL-Vector cells = test: Cell death after overnight peptide incubation; type: cell-based; details: identical conditions, 30 or 50 μM
Text: as §1

ALL cells = test: Tumor cell viability by trypan blue exclusion, ALL cells; type: cell-based; details: BV-173 and SUP-B15, FIG. 5
Description: Tumor cells were treated with peptides at various concentrations for 12 hours and their viability measured by trypan blue exclusion, followed by analyses using the Beckman Coulter Z2 Particle Count and Size Analyzer (BC Z2 CS Analyzer). A minimum of 100 cells per sample using triplicate samples was counted per condition per experiment.

NIH3T3 cells = test: GFP-LC3 autophagy with ectopic FLIP expression; type: cell-based; details: Hank's solution 4 hr or 2 μM rapamycin 3 hr
Description: At 12-16 hours post-transfection with GFP-LC3, NIH3T3 cells containing vector or the FLIP gene were treated with Hank's solution for 4 hr or with 2 μM rapamycin for 3 hr. Subsequently, GFP-LC3 was detected using an inverted fluorescence microscope, autophagy was quantified as means (±SD) of the combined results from three independent experiments, and autophagosomes were visualized through scanning electron microscopy. NIH3T3-Vector, NIH3T3-KSHV-vFLIP, and NIH3T3-MCV-159L cells were treated with Hank's solution for 4 hr, followed by immunoblotting with anti-LC3 and anti-βTubulin. At 12-16 hr post-transfection with GFP-LC3, TREX-BCBL-Vector and TREX-BCBL-vFLIP cells were treated with doxycycline for 24 hr, followed by incubation with 2 μM rapamycin for an additional 12 hr. The detection of GFP-LC3 and autophagy levels was performed as described above, vFLIP expression was detected by IB with anti-Flag, and autophagosomes were visualized by scanning EM. TNF-induced apoptosis and NF-κB luciferase assay were performed as previously described (Matta and Chaudhary (2004) Proc. Natl. Acad. Sci. USA 101:9399-9404).
The anti-autophagic properties of vFLIP, as well as the related cFLIP, HSV, and MCV, were evaluated by ectopic expression of HVS, vFLIP, MCV 159L, and the short form of cFLIP (cFLIPs) in NIHI3T3 cells. DNA fragments corresponding to the coding sequences of the KSHV-vFLIP, human cFLIPs, MCV-MC159, and HVS-vFLIP genes were amplified via polymerase chain reaction and subcloned into pcDNA5/FRT/TO between the AflII and BamHI restriction sites or pEF-IRES-puro between the AflII and XbaI sites. Starvation studies were carried out by transfecting cells containing vector or the FLIP gene with GFP-LC3, then 12-16 h post-transfection, treating the cells with Hank's solution for 4 hr or with 2 μM rapamycin for 3 hr. Autophagy was assessed by GFP-LC3 redistribution using an inverted fluorescence microscope, quantifying autophagy as means (±SD) of the combined results from three independent experiments. Autophagosomes were visualized through scanning electron microscopy. […]

Atg3 = target: T1, Atg3 (Homo sapiens, UniProt Q9NT62); test: Co-immunoprecipitation of FLIP with Atg3 in HEK293T cells; type: binding; details: endogenously and exogenously expressed Atg3
T1 construct: GFP (alternative construct GFP-Atg3, not on the same molecule as GST); expressed in transfected cells; host or cells: HEK293T
Description: The ability of FLIP to bind to Atg3 was evaluated by co-immunoprecipitation assay. HEK293T cells were transfected with Flag-vFLIP and/or GFP-Atg3 or Flag-vFLIP and/or GST-Atg3, and at 48 hr post-transfection, cells were harvested and lysed in an NP40 buffer supplemented with complete protease inhibitor cocktail (Roche). After pre-clearing with protein A/G agarose beads for 1 hr at 4° C., whole-cell lysates were used for immunoprecipitation with αFlag, αGFP, or GST. Generally, 1-4 μg of the antibody was added to 1 ml of the cell lysate and incubated at 4° C. for 8 to 12 hr. The immunoprecipitates were then washed extensively with a lysis buffer and eluted by boiling them with an SDS loading buffer for 5 min. Following immunoprecipitation, samples were treated to immunoblot using αAtg3 (1:500) (Novus).

[2] = system: human Atg3 deletion mutants; test: GST pulldown with Atg3 deletion mutants; type: binding; details: GST-Atg3, N-terminal and C-terminal regions
Text: The overall structure of yeast Atg3 has a unique hammer-like shape with the N-terminal and C-terminal regions discretely responsible for Atg7 and Atg8 (equivalent to mammalian LC3) binding, respectively. (Yamada et al. (2007) J. Biol. Chem. 282:8036-8043). Based on the structure of yeast Atg3, human Atg3 deletion mutants fused with a GST mammalian expression vector were constructed: GST-Atg31-93, GST-Atg3193-268, GST-Atg3268-315, and GST-Atg3193-315-GST-tagged hATG3 and hATG3 mutant genes were cloned into a pcDNA5/FRT/TO derivative encoding an N-terminal GST epitope tag between the BamHI and NotI sites. GST pulldown with Flag-KSHV vFLIP, Flag-cFLIPs, Flag-MCV 159L, or Flag-HVS vFLIP along with GST-Atg3, GST-Atg3 N-terminal region (Nt), or GST-Atg3 C-terminal region (Ct) was performed as described above and was followed by immunoblotting with aFlag or aGST.

NF-κB = NF-κB luciferase reporter assay; type: cell-based; details: NIH3T3 cells, 48 hr post-transfection
Text: To determine the effects of the interactions of vFLIP with FADD, IKKαβγ, and 14-3-3σ on anti-autophagy activity, NIH3T3 cells stably expressing various vFLIP mutants were constructed: m14-3-3σ, which lacks 14-3-3σ-binding; mTRAF2, which lacks TRAF2-binding (Guasparri et al. (2006) EMBO Rep. 7:114-119); 67AAA and 58AAA, which have reduced NF-κB activation (Matta and Chaudhary (2004) Proc. Natl. Acad. Sci. USA 101:9399-9404); and mFADD, which lacks FADD-binding (Yang et al. (2005) Mol. Cell. 20:939-949). These cells were treated with either cyclohexamide (CHX) alone or CHX and TNF-α for 12 hr or with 2 μM rapamycin for 3 hr. Propidium iodide (PI) staining and flow cytometry analysis were performed to determine apoptosis levels. Alternatively, NIH3T3 cells containing vector, KSHV vFLIP, or its mutants were transfected with an NF-κB-luciferase reporter construct and a control renilla luciferase plasmid, pRL-SV40 (Promega). At 48 hr post-transfection, luciferase activity was measured with a luminometer using a dual luciferase assay kit (Promega) and normalized with renilla luciferase activity to determine transfection efficiency. GFP-LC3 puncta were detected using an inverted fluorescence microscope and the autophagy levels quantified as means (±SD) of the results from three independent experiments.

[3] = target: T2, Atg3 (human Atg3, E2-like enzyme of the LC3 conjugation system) (human, UniProt Q9NT62 1-314); test: co-immunoprecipitation from HEK293T cells
T2 construct: also called hATG3; GFP-Atg3

[4] = target: T2, Atg3 (human Atg3, E2-like enzyme of the …); test: binding of Atg3 to the separate DEDs of vFLIP; method not detailed

T2 sequence (Q9NT62 whole entry): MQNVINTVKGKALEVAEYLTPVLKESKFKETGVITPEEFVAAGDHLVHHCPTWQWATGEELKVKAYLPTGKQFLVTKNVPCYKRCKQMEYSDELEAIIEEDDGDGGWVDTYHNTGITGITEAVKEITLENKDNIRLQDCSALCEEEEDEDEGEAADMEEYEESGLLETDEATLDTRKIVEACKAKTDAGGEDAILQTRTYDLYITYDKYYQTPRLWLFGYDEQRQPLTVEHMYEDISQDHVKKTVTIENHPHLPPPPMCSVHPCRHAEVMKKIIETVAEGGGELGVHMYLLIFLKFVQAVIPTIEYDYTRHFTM
T1 sequence (Q9NT62 whole entry): as above

RRRQRRKKRGY-G ([dR][dR][dR][dQ][dR][dR][dK][dK][dR]G[dY]G; not fully specified; printed as RRRQRRKKRGY-G) [HIV-1 TAT only, HIV-1 TAT protein transduction domain alone, reference compound]
autophagy induction (GFP-LC3 puncta) [1]: no increase in autophagy | cell death (in words) (TREX-BCBL-Vector cells): no increase in autophagy nor cell death

RRRQRRKKRGY-G-FVNLAAAVVE [K-α2m]
autophagy induction (GFP-LC3 puncta) [1]: no increase in autophagy | cell death (in words) (TREX-BCBL-Vector cells): no increase in autophagy nor cell death

RRRQRRKKRGY-G-NEMCAAAHAATQ [K-α4m]
autophagy induction (GFP-LC3 puncta) [1]: no increase in autophagy | cell death (in words) (TREX-BCBL-Vector cells): no increase in autophagy nor cell death | anticancer activity in ALL cell lines (ALL cells): significant anticancer activities

B1: MCV 159L (MCV vFLIP) (other)
chain: MSDSKEVPSLPFLRHLLEELDSHEDSLLLFLCHDAAPGCTTVTQALCSLSQQRKLTLAALVEMLYVLQRMDLLKSRFGLSKEGAEQLLGTSFLTRYRKLMVCVGEELDSSELRALRLFACNLNPSLSTALSESSRFVELVLALENVGLVSPSSVSVLADMLRTLRRLDLCQQLVEYEQQEQARYRYCYAASPSLPVRTLRRGHGASEHEQLCMPVQESSDSPELLRTPVQESSSDSPEQTT
notes: also called MCV-MC159; MCV MC159
suppression of starvation- and rapamycin-induced autophagy (NIH3T3 cells): strongly suppressed starvation- and rapamycin-induced autophagy | interaction with Atg3 (co-immunoprecipitation) (Atg3): interacted with Atg3 as efficiently as KSHV-vFLIP | Atg3 region bound (GST pulldown) [2]: Atg3 binding patterns similar to KSHV vFLIP | NF-κB activation (NF-κB): did not carry out NF-κB activation | binding result [3]: binds

B2: HVS vFLIP (other)
chain: MDLKTTVLHITDSFTEEEMYCLLFLINGCIPRNCNAVKISDLIIETLSKSTQWDICLTQCLYVLRKIELLLNLFQVTKEDVKQSFFTQLQLETHVLTLVNVNNNLTAKDEKRLCFILDQFFPRNVVASSVILCVFSNMLCEMPVLECLCQLKKCLKQIGRSDLAKTV
notes: also called Flag-HVS vFLIP
suppression of starvation- and rapamycin-induced autophagy (NIH3T3 cells): strongly suppressed starvation- and rapamycin-induced autophagy | interaction with Atg3 (co-immunoprecipitation) (Atg3): interacted with Atg3 as efficiently as KSHV-vFLIP | Atg3 region bound (GST pulldown) [2]: Atg3 binding patterns similar to KSHV vFLIP | binding result [3]: binds

B3: KSHV vFLIP DED1 (other)
chain: MATYEVLCEVARKLGTDDREVVLFLLNVFIPQPTLAQLIGALRALKEEGRLTFPLLAECLFRAGRRDLLRDLLHLDPRFLERHLAGTMSY
notes: also called DED1 of KSHV vFLIP
binding result [4]: binds

B4: KSHV vFLIP DED2 (other)
chain: FSPYQLTVLHVDGELCARDIRSLIFLSKDTIGSRSTPQTFLHWVYCMENLDLLGPTDVDALMSMLRSLSRVDLQRQVQTLMGLHLSGPSHSQHYRHTP
notes: also called DED2 of KSHV vFLIP
binding result [4]: binds
